The record followed here is article PMC6449345.

The target of assay [1] is S. cerevisiae RNA polymerase II (Pol II), stalled elongation complex on DNA with nascent RNA (S. cerevisiae) (UniProt P16370).
Assay [2] shares this target. The source holds these as a separate data set.

UniProt P16370, sequence (P16370 whole entry, looked up, one chain of several): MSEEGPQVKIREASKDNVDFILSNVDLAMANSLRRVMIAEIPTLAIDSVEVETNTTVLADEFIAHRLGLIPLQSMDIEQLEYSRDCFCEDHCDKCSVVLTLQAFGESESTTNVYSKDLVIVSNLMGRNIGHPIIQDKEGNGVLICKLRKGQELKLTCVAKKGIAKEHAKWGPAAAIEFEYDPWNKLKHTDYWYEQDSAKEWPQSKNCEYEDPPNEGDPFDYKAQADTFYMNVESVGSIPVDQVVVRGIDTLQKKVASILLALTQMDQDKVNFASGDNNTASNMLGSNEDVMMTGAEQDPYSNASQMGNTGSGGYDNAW

B1: Sen1 helicase domain (Sen1 HD, 1095–1904) (domain or fragment)
chain: AELAKQELEHMRKRLNVDMNPLYEIILQWDYTRNSEYPDDEPIGNYSDVKDFFNSPADYQKVMKPLLLLESWQGLCSSRDREDYKPFSIIVGNRTAVSDFYDVYASVAKQVIQDCGISESDLIVMAYLPDFRPDKRLSSDDFKKAQHTCLAKVRTLKNTKGGNVDVTLRIHRNHSFSKFLTLRSEIYCVKVMQMTTIEREYSTLEGLEYYDLVGQILQAKPSPPVNVDAAEIETVKKSYKLNTSQAEAIVNSVSKEGFSLIQGPPGTGKTKTILGIIGYFLSTKNASSSNVIKVPLEKNSSNTEQLLKKQKILICAPSNAAVDEICLRLKSGVYDKQGHQFKPQLVRVGRSDVVNVAIKDLTLEELVDKRIGERNYEIRTDPELERKFNNAVTKRRELRGKLDSESGNPESPMSTEDISKLQLKIRELSKIINELGRDRDEMREKNSVNYRNRDLDRRNAQAHILAVSDIICSTLSGSAHDVLATMGIKFDTVIIDEACQCTELSSIIPLRYGGKRCIMVGDPNQLPPTVLSGAASNFKYNQSLFVRMEKNSSPYLLDVQYRMHPSISKFPSSEFYQGRLKDGPGMDILNKRPWHQLEPLAPYKFFDIISGRQEQNAKTMSYTNMEEIRVAIELVDYLFRKFDNKIDFTGKIGIISPYREQMQKMRKEFARYFGGMINKSIDFNTIDGFQGQEKEIILISCVRADDTKSSVGFLKDFRRMNVALTRAKTSIWVLGHQRSLAKSKLWRDLIEDAKDRSCLAYACSGFLDPRNNRAQSILRKFNVPVPSEQEDDYKLPMEYITQGPDEVKSN
Regarding B1, in assay [1], the Km of formation of the intermediate (Sen1·sEC)'; Michaelis-Menten fit of t1, the lifetime before the intermediate forms came to 0.096 nM; the Km of removal of stalled Pol II by Sen1 HD (10-100 pM); Michaelis-Menten fit of the mean total lifetime (t total) of the transcription bubble; magnetic-trap DNA supercoiling assay, 1 mM ATP, 28 °C came out at 70 pM; the Km of removal of stalled Pol II by Sen1 HD; Michaelis-Menten fit of t total, corrected for the stalling rate ks is 0.083 nM; the Km of removal of stalled Pol II by Sen1 HD; single-molecule Michaelis-Menten global fit of t total distributions (from k1, k-1 and kCAT) turned out to be 0.041 nM. In assay [1], this molecule displayed a k1, rate of binding of Sen1 HD to the stalled elongation complex; single-molecule Michaelis-Menten global fit of t total distributions, kCAT constrained of 2.18e+09 M⁻¹ s⁻¹ and a k−1, rate of unbinding of Sen1 HD from the stalled elongation complex; single-molecule Michaelis-Menten global fit of t total distributions, kCAT constrained of 0.0725 s⁻¹. Further, the k−1, rate of unbinding of Sen1 HD from the stalled elongation complex; the same fit in assay [2] was found to be 0.0719 s⁻¹.
